According to publication PMC4646777 (Science Advances, 2015):
Changes are numbered by the printed parent chain.

B1: Arabidopsis TPL TOPLESS domain (TPD), TPL(1–209), tag removed (domain or fragment, UniProt Q94AI7 1-209, looked up)
chain: MSSLSRELVFLILQFLDEEKFKETVHKLEQESGFFFNMKYFEDEVHNGNWDEVEKYLSGFTKVDDNRYSMKIFFEIRKQKYLEALDKHDRPKAVDILVKDLKVFSTFNEELFKEITQLLTLENFRENEQLSKYGDTKSARAIMLVELKKLIEANPLFRDKLQFPTLRNSRLRTLINQSLNWQHQLCKNPRPNPDIKTLFVDHSCGPPNG
B2: Arabidopsis TPR1 TOPLESS domain (TPD), TPR1(1–209), tag removed (domain or fragment, UniProt Q0WV90 1-209, looked up)
chain: B1 chain with K87R, N168T, G205R, P206L, G209D
B3: OsTPL TOPLESS domain (TPD), TPL(1–209), tag removed (domain or fragment, rice, UniProt Q0J7U6 1-209, looked up)
chain: MSSLSRELVFLILQFLDEEKFKETVHKLEQESAFYFNMKHFEDLVQGGEWDEVEKYLSGFTKVEDNRYSMKIFFEIRKQKYLEALDRHDRAKAVEILVKDLKVFASFNEELFKEITQLLTLENFRQNEQLSKYGDTKSARNIMLMELKKLIEANPLFRDKLNFPPFKVSRLRTLINQSLNWQHQLCKNPRPNPDIKTLFTDHSCAAPTN
B4: OsTPR1 TOPLESS domain (TPD), TPR1(1–209), tag removed (domain or fragment, rice, UniProt Q10NY2 1-209, looked up)
chain: MSSLSRELVFLILQFLDEEKFKETVHKLEQESGFYFNMKYFEDEVINGNWDEVERYLGGFTKVDDNRYSMKIFFEIRKQKYLEALDKHDRSKAVEILVKDLKVFASFNEELFKEITQLLTLENFRENEQLSKYGDTKSARAIMLVELKKLIEANPLFRDKLQFPNLKSSRLRTLINQSLNWQHQLCKNPRPNPDIKTLFVDHSCGQPNG
B5: OsTPR2 TOPLESS domain (TPD), TPR2(1–210), tag removed (domain or fragment, rice, UniProt Q5NBT9 1-210, looked up)
chain: MSSLSRELVFLILQFLDEEKFKETVHKLEQESGFFFNMKYFEEKVHAGEWDEVEKYLSGFTKVDDNRYSMKIFFEIRKQKYLEALDRHDRAKAVDILVKDLKVFSTFNEELYKEITQLLTLENFRENEQLSKYGDTKSARSIMLIELKKLIEANPLFREKLVFPTLKASRLRTLINQSLNWQHQLCKNPRPNPDIKTLFTDHTCTPPNGA
B6: Arabidopsis TPR2 TOPLESS domain (TPD), TPR2(1–209), tag removed (domain or fragment, UniProt Q9LRZ0 1-209, looked up)
chain: MSSLSRELVFLILQFLDEEKFKESVHKLEQESGFFFNIKYFEEKALAGEWDEVEKYLSGFTKVDDNRYSMKIFFEIRKQKYLEALDRNDRAKAVEILAKDLKVFATFNEELYKEITQLLTLENFRENEQLSKYGDTKSARSIMYTELKKLIEANPLFREKLAFPSFKASRLRTLINQSLNWQHQLCKNPRPNPDIKTLFLDHSCSPSNG
B7: VP16-OsTPR2 full length (natural protein, rice, UniProt Q5NBT9 1-1129, looked up)
chain: MSSLSRELVFLILQFLDEEKFKETVHKLEQESGFFFNMKYFEEKVHAGEWDEVEKYLSGFTKVDDNRYSMKIFFEIRKQKYLEALDRHDRAKAVDILVKDLKVFSTFNEELYKEITQLLTLENFRENEQLSKYGDTKSARSIMLIELKKLIEANPLFREKLVFPTLKASRLRTLINQSLNWQHQLCKNPRPNPDIKTLFTDHTCTPPNGARASPVSVPLAAVPKAGGTYPPLTAHTPFQPPPAGPSLAGWMANAAAATSSVPSAVVAASSLPVPPNQAVPIMKRPTITDYQSAESEQLMKRLRPSGHGVDEATYPAPIPQPLWSVEDLPRTVACTLSQGSSVTSMDFHPTRHTLLLVGSTNGEITLWEVGMRERLFSKPFKIWDIQACSPQFQSVAKESSISINRVTWSPDGDLIGVAFAKHLIHLHAYQQPNETRQVLEIDAHSGAVNDIAFSRPNKQLCVVTCGDDRLIKVWDMHGQKLFSFEGHEAPVYSICPHHKESIQFIFSTSLDGKIKAWLYDHMGSRVDYDAPGKWCTTMLYSADGTRLFSCGTSKDGDSYLVEWNESEGSIKRTYSGFRKKSAGVGVVQFDTAQNHILAAGEDNQIKFWDVDNTTMLSSTEADGGLPGLPRLRFNKEGNLLAVTTVDNGFKILANADGLRTLRAFGNRPFEAFRSQYEASSMKVSGAPVVAGISPNIGRMDHIDRNSPAKPSPIMNGGDPASRSIDIKPRISEERPDKAKPWELMEVLNAQQCRVATMPETPDQASKVVRLLYTNSGVGLLALGSNAIQRLWKWARNDQNPSGKATANVVPQHWQPNSGLVMQNDTADTNPEDAVPCIALSKNDSYVMSACGGKVSLFNMMTFKVMTTFMPPPPASTFLAFHPQDNNIIAIGMEDSTIHIYNVRVDEVKTRLKGHQRRITGLAFSNNLQILVSSGADAQLCVWATDTWEKKKSVAIQMPAGKTPSGDTWVQFNSDWSRLLVVHETQLAIYDASKMERIYQWIPQDALSAPISHASYSRNSQLVFAAFTDGNIGIFDVENLRLRCRIAPPAYLSSAAINSNPSVYPLVVAAHPQESNQFAVGLSDGSVKVIEPLESEGKWGTTPPTENGVPNGRTSTSSATSNPAADQIQR
B8: Arabidopsis TPR3 TOPLESS domain (TPD), TPR3(1–209), tag removed (domain or fragment, UniProt Q84JM4 1-209, looked up)
chain: MSSLSRELVFLILQFLEEEKFKESVHRLEKESGFFFNTKYFDEKVLAGEWDDVETYLSGFTKVDDNRYSMKIFFEIRKQKYLEALDRQEKAKAVEILVQDLRVFSTFNEELYKEITQLLTLQNFRENEQLSKYGDTKTARGIMLGELKKLIEANPLFRDKLMFPTLRSSRLRTLINQSLNWQHQLCKNPRPNPDIKTLFTDHTCTLPNG
B9: Arabidopsis TPR4 TOPLESS domain (TPD), TPR4(1–209), tag removed (domain or fragment, UniProt Q27GK7 1-209, looked up)
chain: MSSLSRELVFLILQFLDEEKFKDTVHRLEKESGFFFNMRYFEDSVTAGEWDDVEKYLSGFTKVDDNRYSMKIFFEIRKQKYLEALDKKDHAKAVDILVKELKVFSTFNEELFKEITMLLTLTNFRENEQLSKYGDTKSARGIMLGELKKLIEANPLFRDKLQFPSLKNSRLRTLINQSLNWQHQLCKNPRPNPDIKTLFVDHTCGHPNG

How the values were obtained:
[1] = molecular target: TraM-NINJA EAR fusion protein (tetrameric), untagged (not stated | Arabidopsis); experiment: SEC
[2] = molecular target: H6-tagged OsTPR2 N-terminal domain (TPD), TPR2(1–210) (rice) (UniProt Q5NBT9); experiment: AlphaScreen or HTRF
[3] = molecular target: the molecule itself; experiment: SEC
[4] = molecular target: the molecule itself; experiment: crystal structure
[5] = molecular target: T1, H6-tagged OsTPR2 N-terminal domain (TPD), TPR2(1–210) (rice, UniProt Q5NBT9 1-210); experiment: AlphaScreen or HTRF
T1 sequence (looked up): B5 chain

[6] = molecular target: T2, Gal4 DBD-NINJA full length (Arabidopsis, UniProt Q9SV55 1-425); experiment: two-hybrid
T2 sequence (looked up): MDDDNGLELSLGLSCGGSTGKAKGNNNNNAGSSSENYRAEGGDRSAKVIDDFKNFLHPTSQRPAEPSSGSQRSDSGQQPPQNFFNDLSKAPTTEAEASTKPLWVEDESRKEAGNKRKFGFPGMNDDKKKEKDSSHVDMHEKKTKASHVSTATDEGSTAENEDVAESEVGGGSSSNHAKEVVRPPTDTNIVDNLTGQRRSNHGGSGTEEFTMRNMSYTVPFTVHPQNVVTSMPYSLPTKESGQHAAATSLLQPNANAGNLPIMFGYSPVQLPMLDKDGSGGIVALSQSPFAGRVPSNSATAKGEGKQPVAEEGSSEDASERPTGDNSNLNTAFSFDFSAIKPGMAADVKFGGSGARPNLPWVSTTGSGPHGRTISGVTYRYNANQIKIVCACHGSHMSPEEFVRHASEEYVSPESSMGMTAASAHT

Molecule	stoichiometry N [3]	also measured
TraM-NINJA EAR fusion protein (tetrameric), untagged		stoichiometry N [1]: 4; IC50 [2]: 160 nM
B1	4	
B2	4	
B3	4	
B4	4	
B5		stoichiometry N [4]: 4
DNGLELSLGLSC [monomeric NINJA EAR motif peptide (12 amino acids, untagged)]		IC50 [5]: 38 µM
B6	4	
B7		luciferase reporter activation above background [6]: ~2 fold
B8	4	
B9	4	
